Patent publication US20130079286A1 (Pieris, published 2013)

Key:
Trx-Aβ28 fusion protein [1] = target: T1, Trx-Aβ28 fusion protein (Escherichia coli (strain K12), UniProt P0AA25 1-76 = thioredoxin, Biotin-labelled through an NHS ester (2:1) in the capture and competitive ELISAs; unlabeled in the direct ELISA and as competitor.); assay: capture ELISA: mutein captured, biotinylated Trx-Aβ28 titrated
T1 construct: the entry may be a nucleic acid; also called TrxAbeta28H6
Protocol: FIG. 5 depicts the binding activity of the Lcn2 muteins H1-G1, S1-A4, and US7 in capture ELISAs with different biotinylated Aβ targets. StrepMAB-Immo at 10 μg/ml was immobilized on microtitre plates and employed for capturing of 1 JAM Lcn2 muteins via the Strep-tag H. In figures A to C the binding of the Lcn2 muteins S1-A4 and US7 to (A) biotinylated Aβ40, (B) biotinylated Trx-Aβ28, and (C) biotinylated MBP-Aβ40 are shown. Binding was detected by incubation with ExtrAvidin/AP and a subsequent chromogenic reaction with pNPP. Ovalbumin (Ova), thioredoxin (Trx), and maltose binding protein (MBP) were used as negative controls. Additionally, binding of wild-type (wt) lipocalin was tested. The data were fitted to a monovalent binding model.
For selective capturing of the Lcn2 muteins carrying the C-terminal Strep-tag II (Schmidt and Skerra (2007) Nat. Protoc. 2, 1528-1535), a 96-well MaxiSorp polystyrene microtitre plate (Nunc, Langenselbold, Germany) was coated with 10 μg/mL StrepMAB-Immo (IBA, Göttingen, Germany) in PBS over night at 4° C. and blocked with 3% (w/v) BSA in PBS/T at room temperature for 1 h. After 3 washing steps with PBS/T, 50 μL of a 1 μM solution of the purified Lcn2 muteins from Example 7 were applied to all wells for 1 h. After washing, 50 μL of a dilution series of the biotinylated targets Aβ40, MBP-Aβ40 or Trx-Aβ28 from Example 2 were added and incubated for 1 h whereby the biotinylated forms of Ova, MBP and Trx from Example 2 served as negative control proteins. The wells were washed again and bound conjugate was detected with 50 μL of ExtrAvidin/AP conjugate (Sigma-Aldrich, Steinheim, Germany) diluted 1:5000 in PBS/T for 1 h, followed by signal development in the presence of 100 μL 0.5 mg/mL p-nitrophenyl phosphate (AppliChem, Darmstadt, Germany) in 100 mM Tris/HCl, pH 8.8, 100 mM NaCl, 5 mM MgCl₂.

Trx-Aβ28 fusion protein [2] = target: T1, Trx-Aβ28 fusion protein; assay: direct ELISA: Trx-Aβ28 coated, mutein titrated, detected via Strep-tag II
Protocol: The Aβ targets Trx-Aβ28 and MBP-Aβ40 as well as the control protein maltose binding protein (MBP) were immobilized at 2 μM in PBS over night. Bound Lcn2 muteins were detected via their Strep-tag II using Streptavidin/AP followed by a chromogenic reaction with pNPP. As a control, the binding of wild-type (wt) lipocalin was tested. The data were fitted to a monovalent binding model.
Alternatively, for a “direct” ELISA, 2 μM unlabeled Aβ40 target from Example 2 was adsorbed onto a 96-well MaxiSorp polystyrene microliter plate (Nunc, Langenselbold, Germany) and incubated with the purified Lcn2 mutein, which was detected via the Strep-tag II using a 1:1500 dilution of Streptavidin/AP conjugate (GE Healthcare UK Ltd, Buckinghamshire, UK). As a control, 2 μM MBP from Example 2 was adsorbed onto the ELISA plate. Absorption at 405 nm was measured in a SpectraMax 250 reader (Molecular Devices, Sunnyvale, USA).

central peptide Aβ16-27 = target: T2, central peptide Aβ16-27; assay: capture ELISA: mutein captured, Aβ16-27 titrated
T2 construct: Bought from the Peptide Speciality Laboratory
T2 peptide: KLVFFAEDVGSN

[3] = target: T3, Aβ40 hexamer VFFAED on SPOT membrane; assay: SPOT membrane, hexameric and decameric peptides
T3 construct: Called a minimal motif found with the hexameric and decameric peptides
T3 peptide: Ac-VFFAED-{SPOT membrane}
Protocol: (§1) The SPOT membrane (Amino-PEG500-UC540 sheet, 100×150 mm, Intavis, Köln, Germany) for mapping the Aβ epitope of the Lcn2 muteins S1-A4 and US7 was prepared in an automated procedure as described by Frank ((2002) J. Immunol. Methods 262, 13-26) using a MultiPep RS instrument (Intavis, Köln, Germany) and activated amino acids from the same vendor. The Aβ40 amino acid sequence (SEQ ID NO: 29) was synthesized on the membrane in successive hexamers, decamers, and pentadecamers, each with a dislocation of 1 amino acid, thus covering the entire sequence. The C-termini of these peptides became covalently attached to the membrane whereas their N-termini were acetylated. Immobilized Strep-tag II served as a positive control for the detection method.
(§2) Prior to use, the membrane was washed once with ethanol, 3 times with PBS (4 mM KH₂PO₄, 16 mM Na₂HPO₄, 115 mM NaCl, pH 7.4), and blocked with 3% (w/v) BSA in PBS/T (PBS containing 0.1% (v/v) Tween 20) for 1 h. […]
(§3) Comparison of the membranes incubated with S1-A4 and wild-type Lcn2, respectively, yielded prominent spots that only occurred upon incubation of the membrane with S1-A4 and not with wild-type Lcn2. […] With the shorter hexameric and decameric peptide sequences binding of S1-A4 to the minimal motives VFFAED and FFAEDV was detected.

[4] = target: T4, Aβ40 hexamer FFAEDV on SPOT membrane; assay: SPOT membrane, hexameric and decameric peptides
T4 construct: Called a minimal motif found with the hexameric and decameric peptides
T4 peptide: Ac-FFAEDV-{SPOT membrane}
Protocol: as §1, §2, §3

B1: Lcn2 mutein S1-A4 (designed binder)
chain: QDSTSDLIPAPPLSKVPLQQNFQDNQFHGKWYVVGVAGNYTLREDKDPLKMYATIYELKEDKSYNVTSVGFRLKKCNYKIRTFVPGSQPGEFTLGIIKSQPGMTSYLVRVVSTNYNQHAMVFFKTVGQNREMFNITLYGRTKELTSELKENFIRFSKSLGLPENHIVFPVPIDQCIDG
**Q.** Which results are given for B1?
**A.** Kd (Trx-Aβ28 fusion protein [1]): 1.9 nM; Kd (Trx-Aβ28 fusion protein [2]): 16.2 nM; Kd (central peptide Aβ16-27): 2.6 nM; binding result [3]: binds; binding result [4]: binds
